The values that follow come from article PMC3865217.

Holding throughout (experiment): SPR
Holding throughout (settings): EMSA: 5 mM Hepes pH 7.5, 0.05 mM EDTA, 0.014% Nonidet P40, 5% glycerol, 30 min, 23 C; SPR: 5 mM Hepes pH 7.5, 5 mM phosphate pH 7.5, 0.05 mM EDTA …

Series [1] has as its system Yap8bZIPL26A (Saccharomyces cerevisiae).
The test system of series [2] is Yap8bZIPLNNR (Saccharomyces cerevisiae).
Series [3] deals with Yap8bZIP (Saccharomyces cerevisiae).

Consider Y8RE 25-bp SPR oligomer, for which the dissociation constant Kd in series [1] was determined as 17.2 nM; in series [2] it was 6.5 nM; in series [3], 6.1 nM.
